Experimental findings from article PMC2753740 are described below.

The assay deals with cp283Δ8, cp283 with an eight-amino acid deletion in the loop connecting the native termini (Candida antarctica). The assay can be described thus: SEC. A general note: SEC sorts molecules by how far they enter the pores of the column.

One may read the stoichiometry N as the number of molecules, sites or subunits per partner or assembly.

In turn, “cp283Δ8, cp283 with an eight-amino acid deletion in the loop connecting the native termini (enzyme)” gave a stoichiometry N of 3.
